The text below walks through data of PMC9265717.

The test deals with toll-like receptor 5 (TLR5) (human (endogenous in MDA-MB-468 and MDA-MB-231)) (UniProt O60602).
Sequence of UniProt O60602 (O60602 21-858): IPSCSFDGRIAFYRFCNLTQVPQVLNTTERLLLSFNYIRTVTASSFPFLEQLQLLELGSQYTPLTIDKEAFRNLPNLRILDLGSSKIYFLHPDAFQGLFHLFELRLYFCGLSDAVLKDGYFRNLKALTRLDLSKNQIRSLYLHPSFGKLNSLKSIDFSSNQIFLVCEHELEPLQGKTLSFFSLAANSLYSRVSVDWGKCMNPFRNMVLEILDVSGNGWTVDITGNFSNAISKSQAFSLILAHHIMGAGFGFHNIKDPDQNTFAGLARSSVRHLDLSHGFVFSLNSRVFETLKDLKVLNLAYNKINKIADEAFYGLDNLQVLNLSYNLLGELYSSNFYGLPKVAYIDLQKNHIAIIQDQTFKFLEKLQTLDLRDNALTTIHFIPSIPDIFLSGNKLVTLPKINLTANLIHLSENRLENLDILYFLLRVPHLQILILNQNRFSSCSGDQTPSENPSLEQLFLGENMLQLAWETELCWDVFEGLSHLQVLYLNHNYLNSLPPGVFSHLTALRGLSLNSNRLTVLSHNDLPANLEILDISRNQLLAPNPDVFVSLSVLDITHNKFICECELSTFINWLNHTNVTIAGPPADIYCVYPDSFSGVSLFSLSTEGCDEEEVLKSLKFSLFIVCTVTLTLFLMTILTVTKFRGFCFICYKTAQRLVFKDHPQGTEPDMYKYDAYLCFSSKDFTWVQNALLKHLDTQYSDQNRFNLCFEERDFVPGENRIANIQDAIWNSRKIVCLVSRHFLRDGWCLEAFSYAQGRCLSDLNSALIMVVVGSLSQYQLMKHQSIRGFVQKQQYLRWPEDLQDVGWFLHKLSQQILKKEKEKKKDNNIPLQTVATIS

Turning to “fibronectin EDA (FnEDA) domain (domain or fragment)”, the percent of IL-8 release (ELISA) by MDA-MB-231 cells in response to FnEDA (5 µM) that is inhibited by a blocking antibody to TLR5 was determined as 30%.
